According to patent publication US20060067886A1, “Gastrin receptor-avid peptide conjugates” (priority 1997, published 2006):

Experiment: in vivo
Conditions: SCID, mouse, in vivo, iv, 4 uCi, total radioactivity; for tissue uptake at […] / tissue uptake at 1 h / tissue uptake at 48 h / tissue uptake at 0.5 h / tissue uptake at 4 h / tissue uptake at 24 h / tissue uptake at 72 h: Avg % ID/gm

SMILES: CSCC[C@H](NC(=O)[C@H](CC(C)C)NC(=O)[C@H](Cc1cnc[nH]1)NC(=O)CNC(=O)[C@@H](NC(=O)[C@H](C)NC(=O)[C@H](Cc1c[nH]c2ccccc12)NC(=O)[C@H](CCC(N)=O)NC(=O)CCCCCCCNC(=O)CN1CCN(CC(=O)O)CCN(CC(=O)O)CCN(CC(=O)O)CC1)C(C)C)C(N)=O [111In-DOTA-8-Aoc-BBN[7-14]NH2, metal not drawn]
- tissue uptake dose at […] (Avg % ID, Blood, 15 min): 7.92 ± 2.03 %ID
- tissue uptake dose at 0.5 h (Avg % ID, Blood, 30 min): 2.47 ± 0.74 %ID
- tissue uptake dose at 1 h (Avg % ID, Blood, 1 hr): 0.92 ± 0.58 %ID
- tissue uptake dose at 48 h (Avg % ID, Blood): 0.12 ± 0.05 %ID
- tissue uptake dose at […] (Avg % ID, Carcass, 15 min): 33.1 ± 5.51 %ID
- tissue uptake dose at 0.5 h (Avg % ID, Carcass, 30 min): 12.3 ± 3.27 %ID
- dose excreted at 24 h (Avg % ID, Feces, 24 hrs): 6.1 ± 2.6%
- dose excreted at 48 h (Avg % ID, Feces): 5.89 ± 3.81%
- tissue uptake dose at […] (Avg % ID, Heart, 15 min): 0.2 ± 0.07 %ID
- tissue uptake dose at 0.5 h (Avg % ID, Heart, 30 min): 0.06 ± 0.02 %ID
- tissue uptake dose at 4 h (Avg % ID, Heart, 4 hrs): 0.01 ± 0.01 %ID
- tissue uptake dose at 48 h (Avg % ID, Heart): 0.01 ± 0.01 %ID
- tissue uptake dose at […] (Avg % ID, Kidney, 15 min): 7.18 ± 3.16 %ID
- tissue uptake dose at 0.5 h (Avg % ID, Kidney, 30 min): 2.45 ± 0.78 %ID
- tissue uptake dose at 1 h (Avg % ID, Kidney, 1 hr): 1.81 ± 0.37 %ID
- tissue uptake dose at 4 h (Avg % ID, Kidney, 4 hrs): 0.97 ± 0.08 %ID
- tissue uptake dose at 48 h (Avg % ID, Kidney): 0.16 ± 0.04 %ID
- tissue uptake dose at […] (Avg % ID, L. Intestine, 15 min): 5.84 ± 0.9 %ID
- tissue uptake dose at 0.5 h (Avg % ID, L. Intestine, 30 min): 4.53 ± 0.45 %ID
- tissue uptake dose at 1 h (Avg % ID, L. Intestine, 1 hr): 2.18 ± 0.86 %ID
- tissue uptake dose at 24 h (Avg % ID, L. Intestine, 24 hrs): 1.46 ± 0.42 %ID
- tissue uptake dose at 48 h (Avg % ID, L. Intestine): 0.73 ± 0.21 %ID
- tissue uptake dose at 72 h (Avg % ID, L. Intestine, 72 hrs): 0.41 ± 0.05 %ID
- tissue uptake dose at […] (Avg % ID, Liver, 15 min): 1.85 ± 0.41 %ID
- tissue uptake dose at 0.5 h (Avg % ID, Liver, 30 min): 0.85 ± 0.21 %ID
- tissue uptake dose at 72 h (Avg % ID, Liver, 72 hrs): 0.08 ± 0.01 %ID
- tissue uptake dose at […] (Avg % ID, Lung, 15 min): 0.62 ± 0.25 %ID
- tissue uptake dose at 0.5 h (Avg % ID, Lung, 30 min): 0.2 ± 0.06 %ID
- tissue uptake dose at 24 h (Avg % ID, Lung, 24 hrs): 0.02 ± 0.01 %ID
- tissue uptake dose at 48 h (Avg % ID, Lung): 0.01 %ID
- tissue uptake dose at […] (Avg % ID, Muscle, 15 min): 0.16 ± 0.06 %ID
- tissue uptake dose at 0.5 h (Avg % ID, Muscle, 30 min): 0.05 ± 0.02 %ID
- tissue uptake dose at 1 h (Avg % ID, Muscle, 1 hr): 0.01 ± 0.01 %ID
- tissue uptake dose at 24 h (Avg % ID, Muscle, 24 hrs): 0.01 ± 0.01 %ID
- tissue uptake dose at […] (Avg % ID, Pancreas, 15 min): 10.3 ± 1.44 %ID
- tissue uptake dose at 0.5 h (Avg % ID, Pancreas, 30 min): 7.37 ± 1.2 %ID
- tissue uptake dose at 4 h (Avg % ID, Pancreas, 4 hrs): 3.28 ± 0.8 %ID
- tissue uptake dose at 48 h (Avg % ID, Pancreas): 0.17 ± 0.09 %ID
- tissue uptake dose at 72 h (Avg % ID, Pancreas, 72 hrs): 0.06 ± 0.02 %ID
- tissue uptake dose at […] (Avg % ID, S. Intestine, 15 min): 6.98 ± 0.35 %ID
- tissue uptake dose at 0.5 h (Avg % ID, S. Intestine, 30 min): 6.24 ± 0.46 %ID
- tissue uptake dose at 1 h (Avg % ID, S. Intestine, 1 hr): 7.45 ± 1.62 %ID
- tissue uptake dose at 4 h (Avg % ID, S. Intestine, 4 hrs): 2.43 ± 0.56 %ID
- tissue uptake dose at 24 h (Avg % ID, S. Intestine, 24 hrs): 0.98 ± 0.26 %ID
- tissue uptake dose at 48 h (Avg % ID, S. Intestine): 0.32 ± 0.07 %ID
- tissue uptake dose at 72 h (Avg % ID, S. Intestine, 72 hrs): 0.15 ± 0.02 %ID
- tissue uptake dose at […] (Avg % ID, Spleen, 15 min): 0.1 ± 0.02 %ID
- tissue uptake dose at 0.5 h (Avg % ID, Spleen, 30 min): 0.08 ± 0.03 %ID
- tissue uptake dose at 48 h (Avg % ID, Spleen): 0.01 ± 0.01 %ID
- tissue uptake dose at 72 h (Avg % ID, Spleen, 72 hrs): 0.01 ± 0.01 %ID
- tissue uptake dose at […] (Avg % ID, Stomach, 15 min): 0.98 ± 0.18 %ID
- tissue uptake dose at 0.5 h (Avg % ID, Stomach, 30 min): 0.65 ± 0.04 %ID
- tissue uptake dose at 1 h (Avg % ID, Stomach, 1 hr): 0.52 ± 0.11 %ID
- tissue uptake dose at 4 h (Avg % ID, Stomach, 4 hrs): 0.34 ± 0.23 %ID
- tissue uptake dose at 72 h (Avg % ID, Stomach, 72 hrs): 0.02 ± 0.01 %ID
- tissue uptake dose at […] (Avg % ID, Tumor, 15 min): 1.92 ± 1.22 %ID
- tissue uptake dose at 0.5 h (Avg % ID, Tumor, 30 min): 0.99 ± 0.62 %ID
- tissue uptake dose at 24 h (Avg % ID, Tumor, 24 hrs): 0.25 ± 0.13 %ID
- tissue uptake dose at 48 h (Avg % ID, Tumor): 0.08 ± 0.05 %ID
- dose excreted at […] (Avg % ID, Urine, 15 min): 27.9 ± 10.3%
- dose excreted at 0.5 h (Avg % ID, Urine, 30 min): 62.6 ± 5.02%
- dose excreted at 1 h (Avg % ID, Urine, 1 hr): 68.6 ± 6.96%
- dose excreted at 4 h (Avg % ID, Urine, 4 hrs): 81.8 ± 3.82%
- dose excreted at 24 h (Avg % ID, Urine, 24 hrs): 87.2 ± 4.31%
- dose excreted at 48 h (Avg % ID, Urine): 91.8 ± 4.13%
- dose excreted at 72 h (Avg % ID, Urine, 72 hrs): 92.5 ± 1.09%
- tissue uptake at […] (Blood, 15 min): 5.58 ± 2.43 %ID/g
- tissue uptake at 1 h (Blood, 1 hr): 0.6 ± 0.39 %ID/g
- tissue uptake at 48 h (Blood): 0.07 ± 0.03 %ID/g
- tissue uptake at […] (Heart, 15 min): 2.2 ± 1.05 %ID/g
- tissue uptake at 0.5 h (Heart, 30 min): 0.62 ± 0.33 %ID/g
- tissue uptake at 4 h (Heart, 4 hrs): 0.13 ± 0.06 %ID/g
- tissue uptake at 24 h (Heart, 24 hrs): 0.05 ± 0.09 %ID/g
- tissue uptake at […] (Kidney, 15 min): 29 ± 14.4 %ID/g
- tissue uptake at 0.5 h (Kidney, 30 min): 8.7 ± 2.8 %ID/g
- tissue uptake at 1 h (Kidney, 1 hr): 5.66 ± 1.33 %ID/g
- tissue uptake at 4 h (Kidney, 4 hrs): 3.18 ± 0.43 %ID/g
- tissue uptake at 48 h (Kidney): 0.48 ± 0.09 %ID/g
- tissue uptake at […] (L. Intestine, 15 min): 8.58 ± 3.04 %ID/g
- tissue uptake at 0.5 h (L. Intestine, 30 min): 4.33 ± 0.44 %ID/g
- tissue uptake at 1 h (L. Intestine, 1 hr): 4.29 ± 2.55 %ID/g
- tissue uptake at 4 h (L. Intestine, 4 hrs): 10.3 ± 2.7 %ID/g
- tissue uptake at 24 h (L. Intestine, 24 hrs): 2.35 ± 0.43 %ID/g
- tissue uptake at 48 h (L. Intestine): 0.81 ± 0.2 %ID/g
- tissue uptake at 72 h (L. Intestine, 72 hrs): 0.45 ± 0.04 %ID/g
- tissue uptake at […] (Liver, 15 min): 2.03 ± 0.85 %ID/g
- tissue uptake at 0.5 h (Liver, 30 min): 0.7 ± 0.21 %ID/g
- tissue uptake at 72 h (Liver, 72 hrs): 0.07 ± 0.02 %ID/g
- tissue uptake at 0.5 h (Lung, 30 min): 0.94 ± 0.28 %ID/g
- tissue uptake at 48 h (Lung): 0.06 ± 0.02 %ID/g
- tissue uptake at 72 h (Lung, 72 hrs): 0.02 ± 0.02 %ID/g
- tissue uptake at […] (Muscle, 15 min): 1.3 ± 0.6 %ID/g
- tissue uptake at 0.5 h (Muscle, 30 min): 0.32 ± 0.12 %ID/g
- tissue uptake at 1 h (Muscle, 1 hr): 0.08 ± 0.07 %ID/g
- tissue uptake at […] (Pancreas, 15 min): 54.3 ± 9.7 %ID/g
- tissue uptake at 0.5 h (Pancreas, 30 min): 27.9 ± 3.44 %ID/g
- tissue uptake at 4 h (Pancreas, 4 hrs): 16.6 ± 4.43 %ID/g
- tissue uptake at 48 h (Pancreas): 0.77 ± 0.44 %ID/g
- tissue uptake at 72 h (Pancreas, 72 hrs): 0.23 ± 0.08 %ID/g
- tissue uptake at 0.5 h (S. Intestine, 30 min): 5.16 ± 1.06 %ID/g
- tissue uptake at 1 h (S. Intestine, 1 hr): 6.8 ± 1.81 %ID/g
- tissue uptake at 4 h (S. Intestine, 4 hrs): 2.24 ± 0.35 %ID/g
- tissue uptake at 48 h (S. Intestine): 0.25 ± 0.06 %ID/g
- tissue uptake at 72 h (S. Intestine, 72 hrs): 0.12 ± 0.02 %ID/g
- tissue uptake at […] (Spleen, 15 min): 2.21 ± 0.8 %ID/g
- tissue uptake at 0.5 h (Spleen, 30 min): 0.83 ± 0.26 %ID/g
- tissue uptake at […] (Stomach, 15 min): 3.3 ± 1.99 %ID/g
- tissue uptake at 0.5 h (Stomach, 30 min): 1.82 ± 0.44 %ID/g
- tissue uptake at 1 h (Stomach, 1 hr): 1.99 ± 0.24 %ID/g
- tissue uptake at 72 h (Stomach, 72 hrs): 0.05 ± 0.02 %ID/g
- tissue uptake at 0.5 h (Tumor, 30 min): 4.58 ± 0.53 %ID/g
- tissue uptake at 4 h (Tumor, 4 hrs): 1.78 ± 1.09 %ID/g
- tissue uptake at 48 h (Tumor): 0.68 ± 0.24 %ID/g
- tissue uptake at 72 h (Tumor, 72 hrs): 0.34 ± 0.1 %ID/g
- dose excreted at 24 h (excretion through the hepatobiliary pathway, 24 hours p.i.): 8.5%
